This passage reports molecular brightness, stoichiometry N and oligomeric fraction above 3000 receptors/μm^2 results from PMC8260879.

The target of assay [1] is EphA4 WT fused to C-terminal mTURQ or EYFP (human) (UniProt P54764). Kind of assay: fluorescence intensity fluctuation (FIF) analysis; molecular brightness in regions of the basolateral membrane of transfected HEK293 cells, no ligand, data over the whole range of receptor concentrations.
Assay [2] shares this target. Kind of assay: fluorescence intensity fluctuation (FIF) analysis; molecular brightness, no ligand, only the data at receptor concentrations above 3000 receptors/μm^2.
Assay [3] shares this target. Kind of assay: FRET or BRET; FSI-FRET of mTURQ- and EYFP-tagged receptor in the plasma membrane of live HEK293T cells, no ligand, hypo-osmotic medium; fit of a monomer-dimer equilibrium (Equation 2): dimer to monomers; constants in two-dimensional concentration. In general terms: Bioluminescence resonance energy transfer reports proximity on the nanometre scale.
The target is the same in assay [4]. The experiment in a line: fluorescence intensity fluctuation (FIF) analysis; molecular brightness in transfected HEK293 cells in the presence of ephrinA5-Fc.
The target is the same in assay [5]. Kind of assay: FRET or BRET; FSI-FRET as without ligand but with 0.5 μg/ml ephrinA5-Fc in the hypo-osmotic medium; monomer-dimer equilibrium: dimer to monomers.

“EphA4 WT fused to C-terminal mTURQ or EYFP (from UniProt P54764-1 20-986) (receptor)” yielded a molecular brightness at the peak of the distribution in assay [1] of under 2. Besides, the stoichiometry N in assay [2], in assay [3] and in assay [5] was 2 throughout. Besides, the oligomeric fraction above 3000 receptors/μm^2 in assay [3] was over 65%. For the same substance, in assay [4], the molecular brightness at the maximum of the distribution is under 2.

As usually defined, the stoichiometry N is the number of molecules, sites or subunits per partner or assembly.
